Measured values published in patent US20220242968A1 (BIOTHEUS, published 2022).
Substitutions are numbered along the chain they refer to. One block for each binder: values may come before it.

What was measured:
[1] = biological target: T1, CEACAM3 overexpressed on SW620 cells (UniProt P40198 35-252, limits assumed); assay: FACS on SW620-CEACAM3 cells
T1 construct: whole, on cells; also called SW620-CEACAM3
T1 sequence (looked up): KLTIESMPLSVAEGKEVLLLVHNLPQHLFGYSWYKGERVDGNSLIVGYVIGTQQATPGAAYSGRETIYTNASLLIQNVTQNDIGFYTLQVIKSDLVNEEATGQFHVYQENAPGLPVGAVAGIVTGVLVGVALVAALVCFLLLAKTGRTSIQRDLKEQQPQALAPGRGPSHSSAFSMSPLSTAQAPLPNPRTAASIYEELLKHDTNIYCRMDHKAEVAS
Description: (§1) Flow cytometry (FACS) was used to detect the binding of antibody to LOVO tumor cells naturally expressing human CEACAM5 or cells overexpressing different CEACAM family members. In short, cells were first collected, washed with PBS, counted, and diluted to obtain 2*10⁶/ml cell suspension; 10 μl of an antibody working solution was added to 100 μl of the cell suspension, and incubated at 4° C. for 30 min in the dark; after washing twice with PBS, a corresponding fluorescent-labeled secondary antibody Goat-anti-Human IgG (H+L) (Invitrogen) was added, incubated at 4° C. for 30 min in the dark, after washing twice with PBS, it was suspended in 400 μl of FACS buffer, and the binding profile of the antibody to the cells were detected by FACS.
(§2) The binding profile of the supernatants of the chimeric antibody UM05-5L and the control antibody UM05-8 (anti-CEACAM5 antibody, prepared by the hybridoma method in our laboratory) to different cells at a concentration of 3 μg/mL were detected, in which SW620-CEACAM1 was a cell overexpressing CEACAM1, SW620-CEACAM3 was a cell overexpressing CEACAM3, CHO-CEACAM6 was a cell overexpressing CEACAM6, CHO-CEACAM7 was a cell overexpressing CEACAM7, and CHO-CEACAM8 was a cell overexpressing CEACAM8. […]

[2] = biological target: T2, human CEACAM5 on tumor cells (LOVO, LS174T, KATO3) (human, UniProt P06731 35-685); assay: FACS on LOVO tumor cells naturally expressing human CEACAM5
T2 construct: whole, on cells; also called LOVO cells; LS174T cells
T2 sequence (looked up): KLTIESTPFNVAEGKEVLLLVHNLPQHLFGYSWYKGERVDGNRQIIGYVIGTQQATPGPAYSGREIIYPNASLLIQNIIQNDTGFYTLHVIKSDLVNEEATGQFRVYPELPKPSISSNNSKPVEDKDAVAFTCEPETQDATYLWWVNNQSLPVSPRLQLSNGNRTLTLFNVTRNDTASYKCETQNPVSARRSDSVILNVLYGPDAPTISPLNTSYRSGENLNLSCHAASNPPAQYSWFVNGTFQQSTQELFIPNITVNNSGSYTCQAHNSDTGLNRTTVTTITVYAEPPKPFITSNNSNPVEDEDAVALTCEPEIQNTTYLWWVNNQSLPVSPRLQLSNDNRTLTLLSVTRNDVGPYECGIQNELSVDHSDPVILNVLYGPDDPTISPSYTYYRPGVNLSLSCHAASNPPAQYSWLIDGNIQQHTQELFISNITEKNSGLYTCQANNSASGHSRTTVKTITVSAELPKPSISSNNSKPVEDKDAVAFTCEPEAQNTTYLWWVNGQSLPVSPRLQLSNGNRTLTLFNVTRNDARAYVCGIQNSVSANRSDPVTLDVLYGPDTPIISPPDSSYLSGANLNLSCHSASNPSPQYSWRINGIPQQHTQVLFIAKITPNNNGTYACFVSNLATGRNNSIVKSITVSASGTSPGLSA
Description: as §1
Furthermore, we used FACS to detect the EC50 of the chimeric antibody UM05-5L binding to LOVO tumor cells that naturally expressed human CEACAM5. […] Based on the above results, the chimeric antibody UM05-5L had excellent binding affinity, specificity and selectivity to CEACAM5.

[3] = biological target: T2, human CEACAM5 on tumor cells (LOVO, …); assay: cell-based or functional assay
[4] = biological target: T3, CEACAM1 overexpressed on SW620 cells (UniProt P13688 35-526, limits assumed); assay: FACS on SW620-CEACAM1 cells
T3 construct: whole, on cells; also called SW620-CEACAM1
T3 sequence (looked up): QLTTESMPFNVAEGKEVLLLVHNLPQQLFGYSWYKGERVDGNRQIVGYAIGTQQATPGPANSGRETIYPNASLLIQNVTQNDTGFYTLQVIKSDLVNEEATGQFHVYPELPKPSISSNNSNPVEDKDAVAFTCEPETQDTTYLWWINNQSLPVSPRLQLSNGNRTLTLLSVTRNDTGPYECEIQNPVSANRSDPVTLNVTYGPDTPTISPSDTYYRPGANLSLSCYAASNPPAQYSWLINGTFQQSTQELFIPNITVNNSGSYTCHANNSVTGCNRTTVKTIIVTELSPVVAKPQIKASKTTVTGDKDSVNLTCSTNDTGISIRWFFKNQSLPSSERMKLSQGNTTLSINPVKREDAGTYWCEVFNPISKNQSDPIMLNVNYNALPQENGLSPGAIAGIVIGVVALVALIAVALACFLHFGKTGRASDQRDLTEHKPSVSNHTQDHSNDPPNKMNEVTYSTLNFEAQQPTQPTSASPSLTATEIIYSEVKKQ
Description: as §1, §2

[5] = biological target: T4, CEACAM8 overexpressed on CHO cells (UniProt P31997 35-320, limits assumed); assay: FACS on CHO-CEACAM8 cells
T4 construct: whole, on cells; also called CHO-CEACAM8
T4 sequence (looked up): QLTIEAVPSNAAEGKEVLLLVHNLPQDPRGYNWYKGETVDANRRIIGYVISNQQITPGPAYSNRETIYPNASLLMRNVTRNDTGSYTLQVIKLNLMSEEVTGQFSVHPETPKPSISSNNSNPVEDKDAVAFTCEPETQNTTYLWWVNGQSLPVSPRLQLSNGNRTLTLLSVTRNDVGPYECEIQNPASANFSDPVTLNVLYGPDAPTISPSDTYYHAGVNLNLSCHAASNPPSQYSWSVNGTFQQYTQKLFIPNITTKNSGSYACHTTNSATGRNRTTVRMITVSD
Description: as §1, §2

[6] = biological target: T5, human CEACAM5 protein (human, UniProt P06731 35-685, limits assumed); assay: ELISA, plate coated with human CEACAM5 protein at 1 µg/mL
T5 construct: also called CD66e
T5 sequence (looked up): T2 sequence (looked up)
Description: On the next day, it was first washed with 300 μL of PBST (Tween20: 0.5% o) for 3 times, then blocked with 100 μL/well of 5% BSA/PBS for 1 hour, and shaken at room temperature. Washing was performed 3 times with 300 μL of PBST. A series of dilution solutions of antibody samples were prepared with PBS, and added at 100 μL/well to the 96-well plate and shaken at room temperature for 1 hour. Washing was performed 3 times with 300 μL of PBST. A secondary antibody goat anti-human IgG HRP solution was prepared, added at 100 μL/well to the 96-well plate, and shaken at room temperature for 30 minutes. Washing was performed 4 times with 300 μL of PBST. 100 μL/well TMB was added to perform color development for 20 min. 100 μL/well of 0.6N H₂SO₄ was added to stop the color development, and OD450nm was detected.

[7] = biological target: T2, human CEACAM5 on tumor cells (LOVO, …); assay: FACS on LS174T cells
Description: LS174T cells (tumor cells with high expression of CEACAM5) were cultured in RPMI1640 medium containing 10% FBS. After digesting LS174T cells with TrypLE trypsin, the cells were centrifuged and resuspended in DPBS solution (FACS buffer, 4° C.) containing 2% BSA; then, the cells were added at 5×10⁵/100 μL/well to the U-shaped bottom 96-well plate, and a series of dilution solutions of antibody were added to the U-shaped bottom 96-well plate, mixture was incubated at 4° C. for 1 hour. After incubation, the mixture was centrifuged and the resulted supernatant was discarded; 100 μl of secondary antibody (anti-human IgG Fc-APC) was added to each well, and incubated at 4° C. for 1 hour. After incubation, the cells were washed once with FACS buffer, resuspended in 200 μl FACS buffer, and the fluorescence signal value was read in BD C6 plus.
The 47th amino acid (Cys) of the human-mouse chimeric antibody UM05-5L VH was mutated to Trp, and the mutated antibody was named UM05-5L C47W; the 47th amino acid (Trp) of the humanized antibody hUM05-3 VH was mutated to Cys, and the mutated antibody was named hUM05-3 W47C. As described in Example 10, the ability of the antibody binding to LS174T cells was tested.

[8] = biological target: T6, CEACAM7 overexpressed on CHO cells (UniProt Q14002 36-242, limits assumed); assay: FACS on CHO-CEACAM7 cells
T6 construct: whole, on cells; also called CHO-CEACAM7
T6 sequence (looked up): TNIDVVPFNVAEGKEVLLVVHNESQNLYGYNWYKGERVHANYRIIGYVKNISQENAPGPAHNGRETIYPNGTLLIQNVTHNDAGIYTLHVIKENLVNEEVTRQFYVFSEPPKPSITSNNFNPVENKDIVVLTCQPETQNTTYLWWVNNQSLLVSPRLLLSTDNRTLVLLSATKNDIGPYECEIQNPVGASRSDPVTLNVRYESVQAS
Description: as §1, §2

B1: human-mouse chimeric antibody UM05-5L (antibody, human IgG1, kappa, V domains shown)
VH: QVQLQQSDADLVKPGASVKISCKVSGYTFTDHTIHWMKQRPEQGLECIGYIYPRDGNTKYNEKFKGKATLTADRSSITAYMQLNSLTSEDSAVYFCARPIYDGYSFDYWGQGTTLTVSS
VL: QIVLTQSPAIMSASPGEKVTMTCRASSSVSYMHWYQQKSGTSPKRWIYDTSKLASGVPARFSGSGSGTSYSLTISSMAAEDAATYYCQQWTRNPPTFGAGTKLELKR
notes: expressed in HEK293
binding result [1]: no binding (tested: 3 µg/mL) | EC50 [2]: 3.17 µg/mL | ADCC activity (luciferase in Jurkat/ADC effector cells, LOVO target cells), EC50 [3]: 0.85 µg/mL | binding result [4]: no binding (tested: 3 µg/mL) | binding result [5]: no binding (tested: 3 µg/mL) | EC50 [6]: 0.105 µg/mL | EC50 [7]: 0.81 µg/mL | Emax MFI (Average fluorescence intensity) [7]: 79700 MFI | binding result [8]: no binding (tested: 3 µg/mL)

B3: humanized antibody hUM05-3 (antibody, V domains shown)
VH: EVQLVQSGAEVKKPGATVKISCKVSGYTFTDHTMHWMQQAPGQGLEWIGLIYPRDGSTIYNEKFQGRATLTADRSTDTAYMELSSLRSEDTAVYFCARPIYDGYSFDYWGQGTLVTVSS
VL: QIVLTQSPATLSASPGERATLSCRASSSVSYMHWYQQKPGQAPKRWIYDTSNRATGVPARFSGSGSGTDYTLTISSMEPEDAAVYYCQQWTRNPPTFGQGTKLELK
notes: detected with anti-human IgG Fc-APC
EC50 [7]: 0.53 µg/mL | Emax MFI (Average fluorescence intensity) [7]: 52900 MFI

Continued, values first:

EC50 [7]: 2.46 µg/mL | Emax MFI (Average fluorescence intensity) [7]: 55200 MFI
B2: UM05-5L C47W (antibody, human IgG1, kappa, V domains shown)
VH: B1 VH with C47W
VL: B1 VL
notes: also called mutated human-mouse chimeric antibody UM05-5L (VH Cys47 to Trp)

EC50 [7]: 1.47 µg/mL | Emax MFI (Average fluorescence intensity) [7]: 34400 MFI
B4: hUM05-3 W47C (antibody, V domains shown)
VH: B3 VH with W47C
VL: B3 VL
notes: also called mutated humanized antibody hUM05-3 (VH Trp47 to Cys)
